This data set deals with the molecule itself. The data set is described as follows: cryo-EM structure.

B1: Thermochromatium tepidum form-IAq RuBisCO large subunit (RbcL) (natural protein, UniProt A0A6I6DX30 1-472, looked up)
chain: MAKTYSAGVKEYRETYWMPNYTPKDTDILACFKITPQPGVPREEAAAAVAAESSTGTWTTVWTDLLTDLDYYKGRAYAIEDVPGDDTCFYAFIAYPIDLFEEGSVVNVFTSLVGNVFGFKAVRALRLEDVRFPIAYVMTCNGPPHGIQVERDILNKYGRPLLGCTIKPKLGLSAKNYGRAVYECLRGGLDFTKDDENVNSQPFMRWRQRFDFVMEAIDKAERETGERKGHYLNVTAPTPEEMYKRAEYAKEIGAPIIMHDYITGGFCANTGLAQWCRNNGVLLHIHRAMHAVLDRNPHHGIHFRVLTKILRLSGGDHLHTGTVVGKLEGDRQATLGWIDLLRESYVKEDRSRGIFFDQDWGAMPGAFAVASGGIHVWHMPALVTIFGDDSVLQFGGGTLGHPWGNAAGACANRVALEACIEARNQGIPIEKEGKEVLTKAAAHSPELKIAMETWKEIKFEFDSVDKLDVAHK
Regarding B1, the “stoichiometry N” value was 8.

One may read the stoichiometry N as the number of molecules, sites or subunits per partner or assembly.

Values taken from PMC12216891 (Scientific Reports, 2025).
